These results are taken from article PMC2848554, “Topology and Organization of the Salmonella typhimurium Type III Secretion Needle Complex Components” (PLoS Pathogens, 2010).

B1: PrgH mutant lacking its last 4 amino acids (PrgH^Δ4) (domain or fragment)
chain: METSKEKTITSPGPYIVRLLNSSLNGCEFPLLTGRTLFVVGQSDALTASGQLPDIPADSFFIPLDHGGVNFEIQVDTDATEIILHELKEGNSESRSVQLNTPIQVGELLILIRPESEPWVPEQPEKLETSAKKNEPRFKNGIVAALAGFFILGIGTVGTLWILNSPQRQAAELDSLLGQEKERFQVLPGRDKMLYVAAQNERDTLWARQVLARGDYDKNARVINENEENKRISIWLDTYYPQLAYYRIHFDEPRKPVFWLSRQRNTMSKKELEVLSQKLRALMPYADSVNITLMDDVTAAGQAEAGLKQQALPYSRRNHKGGVTFVIQGALDDVEILRARQFVDSYYRTWGGRYVQFAIELKDDWLKGRSFQYGAEGYIKMSPGHWYF
notes: PrgH of S. typhimurium without its last 4 amino acids; also called C-terminal truncated PrgH; source: S. typhimurium SB906 (chromosomal ΔprgH) complemented with a pWSK29 plasmid, natural promoter; purified within needle complexes; copies: 24
B2: InvG (natural protein)
chain: SEKIPVTGSGFVAKDDSLRTFFDAMALQLKEPVIVSKMAARKKITGNFEFHDPNALLEKLSLQLGLIWYFDGQAIYIYDASEMRNAVVSLRNVSLNEFNNFLKRSGLYNKNYPLRGDNRKGTFYVSGPPVYVDMVVNAATMMDKQNDGIELGRQKIGVMRLNNTFVGDRTYNLRDQKMVIPGIATAIERLLQGEEQPLGNIVSSEPPAMPAFSANGEKGKAANYAGGMSLQEALKQNAAAGNIKIVAYPDTNSLLVKGTAEQVHFIEMLVKALDVAKRHVELSLWIVDLNKSDLERLGTSWSGSITIGDKLGVSLNQSSISTLDGSRFIAAVNALEEKKQATVVSRPVLLTQENVPAIFDNNRTFYTKLIGERNVALEHVTYGTMIRVLPRFSADGQIEMSLDIEDGNDKTPQSDTTTSVDALPEVGRTLISTIARVPHGKSLLVGGYTRDANTDTVQSIPFLGKLPLIGSLFRYSSKNKSNVVRVFMIEPKEIVDPLTPDASESVNNILKQSGAWSGDDKLQKWVRVYLDRGQEAIK
notes: InvG, secretin of the SPI-1 needle complex (outer rings and neck), S. typhimurium; processed InvG starts at Ser-25; printed residue numbers include the signal peptide; Stood in the assays as a subunit of the purified needle complex; source: endogenous, S. typhimurium strain SB905 (w.t.) and SB906 complemented with plasmid-borne PrgH; purified within needle complexes
B3: PrgK (natural protein)
chain: CKDKDLLKGLDQEQANEVIAVLQMHNIEANKIDSGKLGYSITVAEPDFTAAVYWIKTYQLPPRPRVEIAQMFPADSLVSSPRAEKARLYSAIEQRLEQSLQTMEGVLSARVHISYDIDAGENGRPPKPVHLSALAVYERGSPLAHQISDIKRFLKNSFADVDYDNISVVLSERSDAQLQAPGTPVKRNSFATSWIVLIILLSVMSAGFGVWYYKNHYARNKKGITADDKAKSSNE
modifications: lipoprotein; lipidated N-terminal cysteine (Cys-18)
notes: PrgK, lipoprotein of the SPI-1 needle complex base, S. typhimurium; predicted transmembrane domain 207-227; printed residue numbers include the signal peptide; Stood in the assays as a subunit of the purified needle complex or its substructures; source: endogenous, S. typhimurium strains SB905 (w.t.), SB1171 (ΔinvG) and SB906 complemented with plasmid-borne PrgH; purified within needle complexes
B4: PrgH (natural protein)
chain: METSKEKTITSPGPYIVRLLNSSLNGCEFPLLTGRTLFVVGQSDALTASGQLPDIPADSFFIPLDHGGVNFEIQVDTDATEIILHELKEGNSESRSVQLNTPIQVGELLILIRPESEPWVPEQPEKLETSAKKNEPRFKNGIVAALAGFFILGIGTVGTLWILNSPQRQAAELDSLLGQEKERFQVLPGRDKMLYVAAQNERDTLWARQVLARGDYDKNARVINENEENKRISIWLDTYYPQLAYYRIHFDEPRKPVFWLSRQRNTMSKKELEVLSQKLRALMPYADSVNITLMDDVTAAGQAEAGLKQQALPYSRRNHKGGVTFVIQGALDDVEILRARQFVDSYYRTWGGRYVQFAIELKDDWLKGRSFQYGAEGYIKMSPGHWYFPSPL
notes: PrgH, inner ring protein of the SPI-1 type III secretion needle complex, S. typhimurium; wild-type chromosomal allele; the N-terminal amino group of Met-1 (peptide METSK) was cross-linked; predicted transmembrane domain 142-162; Stood in the assays as a subunit of the whole purified needle complex or of the ΔinvG substructure, not as an isolated protein; source: endogenous, S. typhimurium strains …

The target of data set [1] is B2. The data set is described as follows: negative-stain electron microscopy; purified needle complexes of the PrgH^Δ4 strain, without high pH treatment; negative stain. The settings on record: both partners purified.
Data set [2] concerns the molecule itself. The data set is described as follows: negative-stain electron microscopy, single particle analysis; purified needle complexes incubated in 10 mM sodium phosphate pH 10.4 (legend: pH 10.5), 0.5 M NaCl, 0.1% LDAO, 15 min at 37°C, sucrose gradient, then negative stain (PTA or NanoVan); no symmetry imposed, rotational cross-correlation.
Data set [3] deals with the molecule itself. The data set is described as follows: cryo electron microscopy, single particle class averages; purified complexes from wild type and ΔinvG strains, vitrified; two-dimensional class averages and their density difference.
Data set [4] has as its target B4. The data set is described as follows: cross-linking; sucrose gradient purified whole needle complexes (about 1 mg/ml, w.t. strain SB905) on ice with 200 µM BS2G-d0/d4 for 30 or 60 min; single particles re-purified on sucrose gradients; tryptic digestion in solution, high-resolution mass spectrometry, xQuest score above 15. The settings on record: both partners purified.

For data set [5], the target named is B1. The data set is described as follows: negative-stain electron microscopy, single particle analysis; purified needle complexes incubated in 10 mM sodium phosphate pH 10.4 (legend: pH 10.5), 0.5 M NaCl, 0.1% LDAO, 15 min at 37°C, sucrose gradient, then negative stain (PTA or NanoVan); no symmetry imposed, rotational cross-correlation. The settings on record: both partners purified.

Data set [6] concerns the target B2. The data set is described as follows: cross-linking; sucrose gradient purified whole needle complexes (about 1 mg/ml, w.t. strain SB905) on ice with 200 µM BS2G-d0/d4 for 30 or 60 min; single particles re-purified on sucrose gradients; tryptic digestion in solution, high-resolution mass spectrometry, xQuest score above 15. As to conditions: both partners purified.

As for B1, in data set [1], the binding result is recorded as “binds”. Also, the stoichiometry N (usually the number of molecules, sites or subunits per partner or assembly) in data set [2] is 24.

In the case of B2, the binding result in data set [3] was “binds”.

In the case of B3, the binding result in data set [4] and in data set [5] was “binds” each time. The “stoichiometry N” value in data set [2] came out at 24.

Regarding B4, in data set [6], the binding result is reported as “binds”.
